In the supplement of paper PMC10065799, “High-throughput profiling of sequence recognition by tyrosine kinases and SH2 domains using bacterial peptide display” (eLife, 2023):

Biological target: FGFR3 (UniProt P22607)
Test: phosphorylation enrichment, bacterial display (enrichment ratio); higher = better substrate or ligand; peptides without Tyr show the background
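Note: 11-residue human phosphosite peptides and single-mutation variants displayed on the E. coli surface, counted by deep sequencing, each peptide's frequency after selection divided by its frequency in the unselected input library; frequency after pTyr selection over input frequency; kinase dosed for 20-30% of maximal phosphorylation in three min.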

Chain of FGFR3 (P22607 whole entry, looked up): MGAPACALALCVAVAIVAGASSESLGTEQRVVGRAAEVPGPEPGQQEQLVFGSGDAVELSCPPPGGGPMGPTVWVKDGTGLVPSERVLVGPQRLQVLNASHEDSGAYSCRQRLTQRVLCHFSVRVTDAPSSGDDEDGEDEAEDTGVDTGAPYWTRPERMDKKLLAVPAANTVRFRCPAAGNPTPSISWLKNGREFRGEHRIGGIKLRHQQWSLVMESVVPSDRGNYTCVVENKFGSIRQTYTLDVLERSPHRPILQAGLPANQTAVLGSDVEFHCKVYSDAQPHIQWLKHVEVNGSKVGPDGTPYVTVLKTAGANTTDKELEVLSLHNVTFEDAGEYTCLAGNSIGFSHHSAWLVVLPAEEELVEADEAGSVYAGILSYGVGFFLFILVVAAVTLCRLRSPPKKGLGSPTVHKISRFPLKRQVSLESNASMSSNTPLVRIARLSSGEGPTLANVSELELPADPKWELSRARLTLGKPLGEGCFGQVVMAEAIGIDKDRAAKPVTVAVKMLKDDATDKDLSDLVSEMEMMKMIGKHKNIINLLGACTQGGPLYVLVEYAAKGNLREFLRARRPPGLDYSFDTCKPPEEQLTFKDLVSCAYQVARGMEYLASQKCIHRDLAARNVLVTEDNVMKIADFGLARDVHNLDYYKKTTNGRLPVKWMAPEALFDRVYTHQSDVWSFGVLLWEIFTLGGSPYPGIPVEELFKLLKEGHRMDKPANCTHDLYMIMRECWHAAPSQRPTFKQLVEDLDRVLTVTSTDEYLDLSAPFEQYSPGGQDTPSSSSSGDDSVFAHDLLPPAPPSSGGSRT

Point of comparison: VVLVSYVPSSQ [SH2B1_Y624], phosphorylation enrichment 0.703. Against it:
- MNPPPYSQFLS [FGF23_Y154] — lower, 0.567
- LQFRNYQQLFD [MAN2A1_Y442_K440R] — higher, 1.41
- SWKRRYFLLWA [APBB1IP_Y331_R335W] — lower, 0.545
- ADRSCYDLSCR [GARS1_Y467_H472R] — lower, 0.55
- KNDSKYVVKGN [KIT_Y823_N822K] — lower, 0.444
- FSEVRYMKEPF [HIPK4_Y170_V171M_YF] — lower, 0.48
- VNFDDYTVNLG [GFPT1_Y367] — higher, 0.741
- DDSSAYCSVDE [BCKDHA_Y345_R346C] — lower, 0.692
- WASGIYFVPKG [APBB1IP_Y340_R335W_YF] — higher, 4.26
- ISSLDYISKSK [VAV3_Y294_T298S] — lower, 0.587
- PIPAAYNRFDQ [CDC73_Y290_YF] — lower, 0.643
- RCYVYYYSYLL [PTEN_Y177_R173C] — higher, 1.64
- YSMGCYEFSLG [HMGCL_Y198_I200F] — higher, 1.37
- VDLIVYLRTNP [TK2_Y181] — higher, 0.711
- LEAVSYSSPYA [RNLS_Y190_R193P] — higher, 0.987
- ATGGFYSFGGG [KRT24_Y120_YF] — lower, 0.502
- PKGTGCIKTEL [STAT1_Y701_Y701C] — higher, 0.759
- GKVADYIPQLP [GLS_Y249_A254P] — lower, 0.634
- NTPNAYLRVNV [ADD2_Y440_T439A] — lower, 0.667
- EQKKFYNAMKN [SCN5A_Y1495_K1500N_YF] — lower, 0.427
- YQNGMYGLHQD [SGSH_Y89_H84Y] — lower, 0.631
- YPPTHYIRRVP [SLC4A11_Y820] — lower, 0.43
- SVTCTSSPALN [TP53_Y126_Y126S] — higher, 0.863
- LNCAGYCDALE [MTUS1_Y151] — higher, 0.906
- AIGYEYSEINI [SIGLEC12_Y588] — higher, 3.56
- VVEYGYEFFAK [PPP1CB_Y254_D252Y] — higher, 0.995
- TSNQEYLDVSM [FGFR1_Y766_L769V] — higher, 1.05
- CFSSEYHFVGG [CTSC_Y345_Y340C_YF] — higher, 7.23
- YAKSVYWDNTL [NUP107_Y296_E298D] — lower, 0.576
- VHNLDYYKQTT [FGFR3_Y647_K650Q] — higher, 1.34
- GISDEYHVIQH [GCDH_Y398_R402Q] — higher, 3.78
- HRDDGYMPMSP [IRS1_Y612_T608R] — higher, 0.715

Biological target: Fes (UniProt P07332)
Test: as above

Chain of Fes (P07332 whole entry, looked up): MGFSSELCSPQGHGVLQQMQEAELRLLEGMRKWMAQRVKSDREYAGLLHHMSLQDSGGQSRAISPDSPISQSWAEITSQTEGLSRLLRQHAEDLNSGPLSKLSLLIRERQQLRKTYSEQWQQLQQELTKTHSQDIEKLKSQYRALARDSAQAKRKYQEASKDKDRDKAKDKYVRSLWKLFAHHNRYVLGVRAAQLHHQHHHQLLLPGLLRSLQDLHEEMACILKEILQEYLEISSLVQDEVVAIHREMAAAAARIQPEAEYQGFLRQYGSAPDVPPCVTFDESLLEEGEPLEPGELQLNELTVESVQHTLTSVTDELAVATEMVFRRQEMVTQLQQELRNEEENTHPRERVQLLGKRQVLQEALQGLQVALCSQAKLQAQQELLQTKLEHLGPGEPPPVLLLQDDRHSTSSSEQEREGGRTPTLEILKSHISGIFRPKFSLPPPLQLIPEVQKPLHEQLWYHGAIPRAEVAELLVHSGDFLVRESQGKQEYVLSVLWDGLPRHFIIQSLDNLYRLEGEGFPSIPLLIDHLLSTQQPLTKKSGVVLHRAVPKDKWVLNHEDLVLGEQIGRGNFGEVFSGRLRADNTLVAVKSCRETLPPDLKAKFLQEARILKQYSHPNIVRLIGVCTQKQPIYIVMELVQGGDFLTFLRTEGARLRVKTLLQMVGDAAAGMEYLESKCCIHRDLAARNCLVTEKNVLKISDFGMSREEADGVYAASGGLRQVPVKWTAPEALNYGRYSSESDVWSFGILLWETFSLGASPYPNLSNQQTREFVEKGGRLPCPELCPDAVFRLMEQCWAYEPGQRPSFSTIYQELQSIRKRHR

Point of comparison: SWKRRYFLLWA [APBB1IP_Y331_R335W], phosphorylation enrichment 0.591. Against it:
- MNPPPYSQFLS [FGF23_Y154] — higher, 0.706
- LQFRNYQQLFD [MAN2A1_Y442_K440R] — higher, 2.25
- ADRSCYDLSCR [GARS1_Y467_H472R] — higher, 0.835
- KNDSKYVVKGN [KIT_Y823_N822K] — lower, 0.56
- FSEVRYMKEPF [HIPK4_Y170_V171M_YF] — higher, 0.821
- VNFDDYTVNLG [GFPT1_Y367] — higher, 1.2
- DDSSAYCSVDE [BCKDHA_Y345_R346C] — higher, 1
- WASGIYFVPKG [APBB1IP_Y340_R335W_YF] — higher, 0.993
- VVLVSYVPSSQ [SH2B1_Y624] — higher, 0.874
- ISSLDYISKSK [VAV3_Y294_T298S] — higher, 0.688
- PIPAAYNRFDQ [CDC73_Y290_YF] — higher, 0.778
- RCYVYYYSYLL [PTEN_Y177_R173C] — higher, 2
- YSMGCYEFSLG [HMGCL_Y198_I200F] — higher, 1.39
- VDLIVYLRTNP [TK2_Y181] — higher, 1.26
- LEAVSYSSPYA [RNLS_Y190_R193P] — higher, 1.03
- ATGGFYSFGGG [KRT24_Y120_YF] — higher, 0.953
- PKGTGCIKTEL [STAT1_Y701_Y701C] — higher, 1.27
- GKVADYIPQLP [GLS_Y249_A254P] — higher, 0.866
- NTPNAYLRVNV [ADD2_Y440_T439A] — higher, 0.934
- EQKKFYNAMKN [SCN5A_Y1495_K1500N_YF] — lower, 0.43
- YQNGMYGLHQD [SGSH_Y89_H84Y] — higher, 0.808
- YPPTHYIRRVP [SLC4A11_Y820] — higher, 0.678
- SVTCTSSPALN [TP53_Y126_Y126S] — higher, 1.34
- LNCAGYCDALE [MTUS1_Y151] — higher, 1.3
- AIGYEYSEINI [SIGLEC12_Y588] — higher, 0.999
- VVEYGYEFFAK [PPP1CB_Y254_D252Y] — higher, 1.56
- TSNQEYLDVSM [FGFR1_Y766_L769V] — higher, 1.06
- CFSSEYHFVGG [CTSC_Y345_Y340C_YF] — higher, 1.11
- YAKSVYWDNTL [NUP107_Y296_E298D] — higher, 0.839
- VHNLDYYKQTT [FGFR3_Y647_K650Q] — higher, 0.955
- GISDEYHVIQH [GCDH_Y398_R402Q] — higher, 0.928
- HRDDGYMPMSP [IRS1_Y612_T608R] — higher, 0.817

Biological target: MERTK (UniProt Q12866)
Test: as above

Chain of MERTK (Q12866 whole entry, looked up): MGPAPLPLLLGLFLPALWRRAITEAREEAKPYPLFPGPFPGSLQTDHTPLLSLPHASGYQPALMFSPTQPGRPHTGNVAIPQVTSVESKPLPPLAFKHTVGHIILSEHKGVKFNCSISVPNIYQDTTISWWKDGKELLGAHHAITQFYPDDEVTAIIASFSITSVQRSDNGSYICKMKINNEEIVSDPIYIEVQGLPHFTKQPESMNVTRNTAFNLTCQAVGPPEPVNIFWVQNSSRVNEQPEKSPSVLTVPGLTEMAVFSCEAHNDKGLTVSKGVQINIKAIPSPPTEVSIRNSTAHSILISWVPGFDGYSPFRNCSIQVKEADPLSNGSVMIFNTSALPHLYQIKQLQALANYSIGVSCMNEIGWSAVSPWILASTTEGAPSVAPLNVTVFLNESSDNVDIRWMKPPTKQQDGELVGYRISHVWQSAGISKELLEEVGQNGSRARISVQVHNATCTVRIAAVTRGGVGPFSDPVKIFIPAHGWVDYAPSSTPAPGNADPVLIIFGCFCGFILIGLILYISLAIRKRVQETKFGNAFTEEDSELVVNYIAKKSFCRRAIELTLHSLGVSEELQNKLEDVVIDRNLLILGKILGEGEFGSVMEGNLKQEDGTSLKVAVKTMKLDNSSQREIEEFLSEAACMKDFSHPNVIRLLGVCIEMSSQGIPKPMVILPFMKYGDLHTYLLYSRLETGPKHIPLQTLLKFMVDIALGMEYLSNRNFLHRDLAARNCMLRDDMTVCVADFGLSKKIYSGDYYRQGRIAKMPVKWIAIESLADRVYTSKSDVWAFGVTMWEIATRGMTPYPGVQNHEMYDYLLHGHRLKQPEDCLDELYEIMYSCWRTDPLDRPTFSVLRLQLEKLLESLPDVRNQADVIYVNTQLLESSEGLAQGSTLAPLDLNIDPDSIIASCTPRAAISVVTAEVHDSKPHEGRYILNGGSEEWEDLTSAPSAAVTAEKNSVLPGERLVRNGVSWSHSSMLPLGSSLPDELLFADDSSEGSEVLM

Point of comparison: AIGYEYSEINI [SIGLEC12_Y588], phosphorylation enrichment 0.492. Against it:
- MNPPPYSQFLS [FGF23_Y154] — higher, 0.543
- LQFRNYQQLFD [MAN2A1_Y442_K440R] — higher, 0.789
- SWKRRYFLLWA [APBB1IP_Y331_R335W] — higher, 0.59
- ADRSCYDLSCR [GARS1_Y467_H472R] — lower, 0.445
- KNDSKYVVKGN [KIT_Y823_N822K] — lower, 0.316
- FSEVRYMKEPF [HIPK4_Y170_V171M_YF] — lower, 0.32
- VNFDDYTVNLG [GFPT1_Y367] — lower, 0.487
- DDSSAYCSVDE [BCKDHA_Y345_R346C] — higher, 0.505
- WASGIYFVPKG [APBB1IP_Y340_R335W_YF] — higher, 9
- VVLVSYVPSSQ [SH2B1_Y624] — lower, 0.424
- ISSLDYISKSK [VAV3_Y294_T298S] — lower, 0.482
- PIPAAYNRFDQ [CDC73_Y290_YF] — higher, 0.509
- RCYVYYYSYLL [PTEN_Y177_R173C] — higher, 1.01
- YSMGCYEFSLG [HMGCL_Y198_I200F] — higher, 3.64
- VDLIVYLRTNP [TK2_Y181] — lower, 0.328
- LEAVSYSSPYA [RNLS_Y190_R193P] — higher, 0.627
- ATGGFYSFGGG [KRT24_Y120_YF] — higher, 7.38
- PKGTGCIKTEL [STAT1_Y701_Y701C] — higher, 0.74
- GKVADYIPQLP [GLS_Y249_A254P] — lower, 0.455
- NTPNAYLRVNV [ADD2_Y440_T439A] — lower, 0.404
- EQKKFYNAMKN [SCN5A_Y1495_K1500N_YF] — lower, 0.458
- YQNGMYGLHQD [SGSH_Y89_H84Y] — higher, 0.566
- YPPTHYIRRVP [SLC4A11_Y820] — lower, 0.469
- SVTCTSSPALN [TP53_Y126_Y126S] — lower, 0.436
- LNCAGYCDALE [MTUS1_Y151] — higher, 0.617
- VVEYGYEFFAK [PPP1CB_Y254_D252Y] — higher, 0.601
- TSNQEYLDVSM [FGFR1_Y766_L769V] — lower, 0.441
- CFSSEYHFVGG [CTSC_Y345_Y340C_YF] — higher, 2.02
- YAKSVYWDNTL [NUP107_Y296_E298D] — lower, 0.435
- VHNLDYYKQTT [FGFR3_Y647_K650Q] — higher, 0.607
- GISDEYHVIQH [GCDH_Y398_R402Q] — higher, 0.496
- HRDDGYMPMSP [IRS1_Y612_T608R] — lower, 0.37

Biological target: Hck (UniProt P08631)
Test: as above

Chain of Hck (P08631 whole entry, looked up): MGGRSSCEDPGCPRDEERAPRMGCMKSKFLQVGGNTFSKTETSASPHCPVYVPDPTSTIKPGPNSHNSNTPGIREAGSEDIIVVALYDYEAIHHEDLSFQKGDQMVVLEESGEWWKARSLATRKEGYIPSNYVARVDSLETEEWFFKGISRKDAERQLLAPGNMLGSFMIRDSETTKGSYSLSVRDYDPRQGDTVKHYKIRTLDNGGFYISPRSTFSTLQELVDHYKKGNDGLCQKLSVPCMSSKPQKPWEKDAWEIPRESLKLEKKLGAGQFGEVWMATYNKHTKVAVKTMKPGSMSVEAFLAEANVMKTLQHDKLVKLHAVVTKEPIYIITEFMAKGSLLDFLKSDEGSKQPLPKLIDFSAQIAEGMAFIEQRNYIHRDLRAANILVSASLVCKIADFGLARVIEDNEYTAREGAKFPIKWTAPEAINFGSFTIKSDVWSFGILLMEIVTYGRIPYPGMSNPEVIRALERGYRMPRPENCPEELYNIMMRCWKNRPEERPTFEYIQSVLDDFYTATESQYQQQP

Point of comparison: MNPPPYSQFLS [FGF23_Y154], phosphorylation enrichment 0.511. Against it:
- LQFRNYQQLFD [MAN2A1_Y442_K440R] — higher, 0.771
- SWKRRYFLLWA [APBB1IP_Y331_R335W] — lower, 0.497
- ADRSCYDLSCR [GARS1_Y467_H472R] — higher, 0.594
- KNDSKYVVKGN [KIT_Y823_N822K] — lower, 0.379
- FSEVRYMKEPF [HIPK4_Y170_V171M_YF] — lower, 0.438
- VNFDDYTVNLG [GFPT1_Y367] — higher, 0.528
- DDSSAYCSVDE [BCKDHA_Y345_R346C] — higher, 0.58
- WASGIYFVPKG [APBB1IP_Y340_R335W_YF] — higher, 7.16
- VVLVSYVPSSQ [SH2B1_Y624] — lower, 0.433
- ISSLDYISKSK [VAV3_Y294_T298S] — lower, 0.443
- PIPAAYNRFDQ [CDC73_Y290_YF] — lower, 0.446
- RCYVYYYSYLL [PTEN_Y177_R173C] — higher, 1.08
- YSMGCYEFSLG [HMGCL_Y198_I200F] — higher, 1.25
- VDLIVYLRTNP [TK2_Y181] — lower, 0.352
- LEAVSYSSPYA [RNLS_Y190_R193P] — higher, 1.07
- ATGGFYSFGGG [KRT24_Y120_YF] — higher, 1.83
- PKGTGCIKTEL [STAT1_Y701_Y701C] — higher, 0.689
- GKVADYIPQLP [GLS_Y249_A254P] — lower, 0.448
- NTPNAYLRVNV [ADD2_Y440_T439A] — lower, 0.469
- EQKKFYNAMKN [SCN5A_Y1495_K1500N_YF] — lower, 0.388
- YQNGMYGLHQD [SGSH_Y89_H84Y] — higher, 1
- YPPTHYIRRVP [SLC4A11_Y820] — lower, 0.369
- SVTCTSSPALN [TP53_Y126_Y126S] — higher, 0.526
- LNCAGYCDALE [MTUS1_Y151] — the same, 0.511
- AIGYEYSEINI [SIGLEC12_Y588] — higher, 2.3
- VVEYGYEFFAK [PPP1CB_Y254_D252Y] — higher, 0.72
- TSNQEYLDVSM [FGFR1_Y766_L769V] — higher, 0.56
- CFSSEYHFVGG [CTSC_Y345_Y340C_YF] — higher, 1.35
- YAKSVYWDNTL [NUP107_Y296_E298D] — higher, 0.678
- VHNLDYYKQTT [FGFR3_Y647_K650Q] — lower, 0.485
- GISDEYHVIQH [GCDH_Y398_R402Q] — higher, 0.846
- HRDDGYMPMSP [IRS1_Y612_T608R] — lower, 0.488
